What is called Kd is the free concentration of one partner at which half of the binding sites on the other are occupied at equilibrium, for simple one-to-one binding. A word on the stoichiometry N: it is a count of units in the complex or per binding partner.

Data on 7 molecules can be found in PMC6817756.

One data set relates to ME-47. The data set can be described thus: fluorescence polarization. Conditions: FP: 10 mM Tris-HCl, 50 mM KCl, 1 mM EDTA, 5 mM MgCl2, 10 mM DTT, 2 nM DNA stock mixed 20 ul + 20 ul protein, 30 min, pH and temperature not stated; pulldown: ….
Data set [1] deals with Omomyc (recombinant, bacterially expressed) (UniProt P01106). The data set can be described thus: SEC; size exclusion chromatography of purified Omomyc, data not shown. A general note: Size exclusion chromatography separates by hydrodynamic size, large species first.
For data set [2] the target is unchanged. The data set can be described thus: native gel or EMSA; native gel electrophoresis of purified recombinant Omomyc (the legend of Fig. 1A speaks of SDS-PAGE under nonreduced and reduced conditions). (Mobility shift assays separate free from complexed probe on a gel.)
Data set [3] deals with Myc (human (endogenous in HCT116)) (UniProt P01106).
In data set [4] the target is T1, Omomyc (synthetic or recombinant) (UniProt P01106 365-454, E425T;E432I;R438Q;R439N). The data set can be described thus: fluorescence polarization; synthetic Omomyc; FP: 10 mM Tris-HCl, 50 mM KCl, 1 mM EDTA, 5 mM MgCl2, 10 mM DTT, 2 nM DNA stock mixed 20 ul + 20 ul protein, 30 min, pH and temperature not stated; pulldown: 50 mM Tris-HCl pH 7.5, 5% glycerol, 1.5 mM MgCl2, 150 mM NaCl, 1 mM DTT, IGEPAL, 4 C. Conditions: chain copies: 2; blunt. In general terms: In fluorescence polarisation assays a small probe gives low polarisation when free and higher when bound to something large.

Data set [5] deals with T2, MAX bHLH peptide (MAX/MAX) (UniProt P61244 22-103). The data set can be described thus: fluorescence polarization; table heading: affinity; FP: 10 mM Tris-HCl, 50 mM KCl, 1 mM EDTA, 5 mM MgCl2, 10 mM DTT, 2 nM DNA stock mixed 20 ul + 20 ul protein, 30 min, pH and temperature not stated; pulldown: 50 mM Tris-HCl pH 7.5, 5% glycerol, 1.5 mM MgCl2, 150 mM NaCl, 1 mM DTT, IGEPAL, 4 C. Conditions: chain copies: 2; blunt.

The target in data set [6] is T1, Omomyc (synthetic or recombinant). The data set is described as above. Conditions: chain copies: 2, blunt.
The target in data set [7] is MYC bHLH peptide (in MYC/MAX);MAX bHLH peptide (in MYC/MAX) (;, UniProt P01106;P61244 365-454;22-103, |). The description is as above. Conditions: tags: ;, copies: 1;1, blunt.
Data set [8] deals with MYC bHLH peptide (MYC/MYC) (UniProt P01106 365-454). The description is as above. Conditions: chain copies: 2, blunt.
Data set [9] deals with T2, MAX bHLH peptide (MAX/MAX). The data set can be described thus: fluorescence polarization; text: fails to bind; FP: 10 mM Tris-HCl, 50 mM KCl, 1 mM EDTA, 5 mM MgCl2, 10 mM DTT, 2 nM DNA stock mixed 20 ul + 20 ul protein, 30 min, pH and temperature not stated; pulldown: 50 mM Tris-HCl pH 7.5, 5% glycerol, 1.5 mM MgCl2, 150 mM NaCl, 1 mM DTT, IGEPAL, 4 C. Conditions: chain copies: 2; label: 5'-FAM; blunt.

Consider “CCCCCACCACGCGGTGCCTGA (double strand) [VEGFA-2 E box]”, for which the Kd with ME-47 is 3110 nM.
Take “CCCCCACCACGTGGTGCCTGA (double strand) [E box DNA (FP probe)]”: in the data set with ME-47, the Kd came out at 117 nM.
In the case of “Omomyc (recombinant, bacterially expressed) (from UniProt P01106 369-421) (domain or fragment)”, the stoichiometry N in data set [1] was 2. Besides, the stoichiometry N in data set [2] was found to be 2. Moreover, in data set [3], the cellular thermal shift assay (CETSA) in Ramos cell lysates with 20 μM Omomyc: change in the aggregation temperature (Tagg) of Myc (destabilisation) is 6 °C and the cellular thermal shift assay (CETSA), isothermal dose-response fingerprint at 54°C in Ramos cell lysates: EC50 of Omomyc for thermal destabilisation of Myc was 16000 nM.
For the molecule “CCCCCACCACCTGGTGCCTGA (double strand) [VEGFA-1 E box]”, in the data set on ME-47, the Kd came out at 1080 nM.

B1: E box DNA (FP probe) (dsDNA)
DNA 1: CCCCCACCACGTGGTGCCTGA
DNA 2: TCAGGCACCACGTGGTGGGGG
For B1, the Kd was ~22 nM in data set [4]; 258 nM in data set [5]; 107 nM in [6]; 71.4 nM in data set [7]; 159 nM in data set [8].

B2: VEGFA-2 E box (dsDNA)
DNA 1: CCCCCACCACGCGGTGCCTGA
DNA 2: TCAGGCACCGCGTGGTGGGGG
With B2, the Kd in data set [6] (label: 5'-FAM) came to 99.2 nM; in data set [7] (label: 5'-FAM), 451 nM; in data set [8] (label: 5'-FAM) it was 111 nM; in [9], 2020 nM.

B3: VEGFA-1 E box (dsDNA)
DNA 1: CCCCCACCACCTGGTGCCTGA
DNA 2: TCAGGCACCAGGTGGTGGGGG
Take B3: the Kd in data set [6] (label: 5'-FAM) turned out to be 103 nM; in data set [7] (label: 5'-FAM), 397 nM; in [8] (label: 5'-FAM) it was 140 nM; in data set [9], 3390 nM.
